Results from patent US20230364248A1 (Novo Nordisk, published 2023).

Target: full length MIC-1 receptor (hGFRAL) and its full signaling co-receptor hRET51, stably expressed in BHK21 cells (human, UniProt Q6UXV0 19-394; P07949 29-1114)
Test: cell-based or functional assay

Chain of full length MIC-1 receptor (hGFRAL) and its full signaling co-receptor hRET51, stably expressed in BHK21 cells (Q6UXV0 19-394, chain 1 of 2): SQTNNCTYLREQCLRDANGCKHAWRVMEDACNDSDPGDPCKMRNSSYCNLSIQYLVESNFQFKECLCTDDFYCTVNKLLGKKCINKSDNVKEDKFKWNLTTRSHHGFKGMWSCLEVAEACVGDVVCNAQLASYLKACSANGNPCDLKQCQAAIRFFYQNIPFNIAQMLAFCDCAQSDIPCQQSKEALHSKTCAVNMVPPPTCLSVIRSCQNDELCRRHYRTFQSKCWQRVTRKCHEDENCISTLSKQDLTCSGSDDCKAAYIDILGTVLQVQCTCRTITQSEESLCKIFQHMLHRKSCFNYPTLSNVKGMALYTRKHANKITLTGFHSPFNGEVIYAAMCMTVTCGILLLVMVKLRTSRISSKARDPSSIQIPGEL
Chain of full length MIC-1 receptor (hGFRAL) and its full signaling co-receptor hRET51, stably expressed in BHK21 cells (P07949 29-1114, chain 2 of 2): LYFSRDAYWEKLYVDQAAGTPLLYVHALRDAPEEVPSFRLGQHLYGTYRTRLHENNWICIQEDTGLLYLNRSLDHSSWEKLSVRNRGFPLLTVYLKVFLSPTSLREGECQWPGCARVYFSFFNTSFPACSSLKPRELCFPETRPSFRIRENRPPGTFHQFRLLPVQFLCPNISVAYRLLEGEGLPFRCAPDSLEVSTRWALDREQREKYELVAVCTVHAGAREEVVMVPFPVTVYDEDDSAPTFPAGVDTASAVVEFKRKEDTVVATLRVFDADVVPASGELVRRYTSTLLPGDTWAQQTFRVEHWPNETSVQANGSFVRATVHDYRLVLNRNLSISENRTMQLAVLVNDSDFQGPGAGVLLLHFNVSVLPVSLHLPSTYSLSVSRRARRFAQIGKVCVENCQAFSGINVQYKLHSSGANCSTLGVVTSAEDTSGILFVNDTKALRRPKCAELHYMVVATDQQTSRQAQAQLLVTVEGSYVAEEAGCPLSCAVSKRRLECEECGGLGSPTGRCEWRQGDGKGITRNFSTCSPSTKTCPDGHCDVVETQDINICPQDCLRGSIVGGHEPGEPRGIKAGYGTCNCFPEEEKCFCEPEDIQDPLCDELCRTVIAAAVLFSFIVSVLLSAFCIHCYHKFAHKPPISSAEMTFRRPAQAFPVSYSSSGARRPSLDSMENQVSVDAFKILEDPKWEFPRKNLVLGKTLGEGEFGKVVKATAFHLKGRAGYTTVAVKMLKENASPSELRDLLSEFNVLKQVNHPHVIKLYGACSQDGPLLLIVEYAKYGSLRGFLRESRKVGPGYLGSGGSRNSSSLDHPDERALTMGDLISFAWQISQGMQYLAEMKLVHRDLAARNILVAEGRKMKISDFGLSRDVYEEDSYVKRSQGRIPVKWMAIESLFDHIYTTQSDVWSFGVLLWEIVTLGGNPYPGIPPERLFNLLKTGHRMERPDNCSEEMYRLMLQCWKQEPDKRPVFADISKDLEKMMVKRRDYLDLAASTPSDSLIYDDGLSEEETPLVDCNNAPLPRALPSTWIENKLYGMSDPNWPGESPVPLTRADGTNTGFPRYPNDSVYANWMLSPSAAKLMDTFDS

Emax: 100%
B1: MIC-1 (SEQ ID NO: 1) (ligand)
chain: ARNGDHCPLGPGRCCRLHTVRASLEDLGWADWVLSPREVQVTMCIGACPSQFRAANMHAQIKTSLHRLKPDTVPAPCCVPASYNPMVLIQKTDTGVSLQTYDDLLAKDCHCI
